Measured values as given in US20230416343A1.
Read-outs that look alike come from different tables or passages of the source.

B1: antibody S1D2 (antibody, V domains shown)
VH: EVQLVESGGGLIQPGGSLRLSCAASGFTVSSNYMSWVRQAPGKGLEWVSIIYPGGSTNYADSVKGRFTISRDNSRNTLYLQMNSLRAEDTAVYYCARELGYYGMDVWGQGTTVTVSS
VL: DIQMTQSPSSVSASVGDRVTITCRASQGISTWLVWYQQKPGKAPNLLIYGASSLQSGVPSRFSGSGSGTDFTLTISSLQPEDFATYYCQQANSFPYTFGQGTKLEIK
B2: S1D2LALA antibody (STI-1499) (antibody, V domains shown)
VH: B1 VH
VL: B1 VL

What was measured:
Conditions in all cases: remark: other sources report otherwise
[1] = biological target: T1, Recombinant SARS-CoV2 RBD having a carboxy terminal his tag (SARS-CoV-2), P0DTC2
[2] = biological target: T1, Recombinant SARS-CoV2 RBD having a …; remark: listed apart in the source
[3] = biological target: T2, SARS-CoV-2 spike protein expressed on HEK293 cells (SARS-CoV-2), P0DTC2; assay: flow cytometry on HEK293 cells expressing the spike; table 'spike'
[4] = biological target: SARS-CoV-2 variant spike protein deletion mutant del 243-244 on HEK293 cells (SARS-CoV-2), P0DTC2
[5] = biological target: T3, SARS-CoV-2 D614G mutant spike protein expressed on HEK293 cells (SARS-CoV-2), P0DTC2
[6] = biological target: SARS-CoV-2 variant spike protein E484K on HEK293 cells (SARS-CoV-2), P0DTC2
[7] = biological target: SARS-CoV-2 variant spike protein S494P on HEK293 cells (SARS-CoV-2), P0DTC2
[8] = biological target: SARS-CoV-2 variant spike protein F490S on HEK293 cells (SARS-CoV-2), P0DTC2
[9] = biological target: T3, SARS-CoV-2 D614G mutant spike protein …; remark: listed apart in the source
[10] = biological target: T2, SARS-CoV-2 spike protein expressed on …

Binder | Kd [1] | Kd [2] | Maxi % [3] | EC50 [4] | EC50 [5] | EC50 [6] | EC50 [7] | EC50 [8] | EC50 [9] | Maxi % [9] | EC50 [10]
B1 | 46 nM | 46.2 nM | – | – | – | – | – | – | – | – | –
B2 | – | – | 100% | 180 µg/mL | 70 µg/mL | 140 µg/mL | 194 µg/mL | 38 µg/mL | 0.13 µg/mL | 100% | 0.1 µg/mL
